# In US20220403048A1, “BINDING MOLECULES TO ARGINASE II [ARG2]” (Cancer Research Technology Limited, priority 2019, published 2022):
# Numbering of substitutions follows the chain as printed.
# T1: human ARG2 (Homo sapiens, UniProt P78540, E275H/R327K)
# T1 construct: His10 (after a GGG linker) (C); made in house; host or cells: E. coli BL21 (DE3)
# T1 sequence (P78540 23-354 E275H/R327K): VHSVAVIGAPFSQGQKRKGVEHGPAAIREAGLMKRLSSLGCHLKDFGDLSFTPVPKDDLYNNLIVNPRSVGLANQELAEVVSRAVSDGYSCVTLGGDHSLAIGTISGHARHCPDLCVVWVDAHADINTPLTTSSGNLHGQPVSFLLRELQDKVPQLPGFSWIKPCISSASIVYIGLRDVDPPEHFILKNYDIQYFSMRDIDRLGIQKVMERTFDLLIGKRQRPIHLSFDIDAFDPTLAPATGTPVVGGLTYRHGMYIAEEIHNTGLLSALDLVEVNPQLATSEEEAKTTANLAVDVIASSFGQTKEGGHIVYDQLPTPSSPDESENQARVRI
# B1: C0021133: anti-ARG2 antibody, VH SEQ ID NO: 192, VL SEQ ID NO: 197 (antibody, listed as Homo sapiens, V domains shown)
# VH: EVQLLESGGGLVQPGGSLRLSCAASGFTFRYDHHVWVRQAPGKGLEWVSAISGSGGSTYYADSVKGRFTISRDNSKNTLYLQMNSLRAEDTAVYYCARLRADLGLYMDLWGRGTLVTVSS
# VL: QSVLTQPPSVSAAPGQKVTVSCSGSSSNIGNHYVSWYQQLPGTAPKLLIYDTTVLSSGIPDRFSGSKSGTSATLGITGLQTGDEADYYCGTWDELTSNLVFGGGTKLTVL
# modifications: C0021133
# B2: C0021139: anti-ARG2 antibody, VH SEQ ID NO: 212, VL SEQ ID NO: 217 (antibody, listed as Homo sapiens, V domains shown)
# VH: B1 VH with R30Q, H33Y, H34Q
# VL: B1 VL with V20I, T52N, T53S, V54E, L55R, S56T
# modifications: C0021139
# B3: C0021022: anti-ARG2 antibody, VH SEQ ID NO: 42, VL SEQ ID NO: 47 (antibody, listed as Homo sapiens, V domains shown)
# VH: EVQLLESGGGLVQPGGSLRLSCAASGFTFSSYAMSWVRQAPGKGPEWVSAISGFSPYYADSVKGRFTISRDNSKNTLYLQMNSLRAEDTAVYYCARLRADLGLYMDLWGRGTLVTVSS
# VL: B1 VL with V20I, T52N, T53S, V54E, L55R, S56P, E94S, L95S, T96L, N98A
# modifications: C0021022
# B4: C0021061: anti-ARG2 antibody, first generation lead, VH SEQ ID NO: 62, VL SEQ ID NO: 67 (antibody, listed as Homo sapiens, V domains shown)
# VH: EVQLLESGGGLVQPGGSLRLSCAASGFTFSSYAMSWVRQAPGKGLEWVSAKPTDAGSTYYADSVKGRFTISRDNSKNTLYLQMNSLRAEDTAVYYCARLRADLGLYMDLWGRGTLVTVSS
# VL: B1 VL with V20I, D51N, T53V, V54Y, L55P, S56K, E94S, L95S, T96L, N98A
# modifications: C0021061
# B5: C0021065: anti-ARG2 antibody, VH SEQ ID NO: 72, VL SEQ ID NO: 77 (antibody, listed as Homo sapiens, V domains shown)
# VH: B3 VH with K74R
# VL: B1 VL with V20I, T53D, V54H, L55M, S56A, E94S, L95S, T96L, N98A
# modifications: C0021065
# B6: C0021092: anti-ARG2 antibody, VH SEQ ID NO: 92, VL SEQ ID NO: 97 (antibody, listed as Homo sapiens, V domains shown)
# VH: B4 VH with S31R, K51H, P52T, T53H, D54S, A55P
# VL: QSVLTQPPSVSAAPGQKVTISCSGSSSNIGNHYVSWYQQLPGTAPKLLIYNSVARPSGIPDRFSGSKSGTSATLGITGLQTGDEADYYCGTWDSSLSALVFGGGTKLTVL
# modifications: C0021092
# B7: C0021158 IgG: anti-ARG2 antibody, VH SEQ ID NO: 282, VL SEQ ID NO: 287; IgG and Fab versions carry these sequences (antibody, listed as Homo sapiens, V domains shown)
# VH: B1 VH with D32E, H33V, H34A, V35A, S54P, G55I, G56P, S57K, T58G
# VL: B1 VL with V20I, T52N, T53S, V54E, L55R, S56T, S57A, I59V
# modifications: C0021158 IgG
# B8: C0021180: anti-ARG2 antibody, VH SEQ ID NO: 332, VL SEQ ID NO: 337 (antibody, listed as Homo sapiens, V domains shown)
# VH: B1 VH with D32E, H33V, H34A, V35A, S54P, G55I, G56P, S57K, T58G
# VL: QSVLTQPPTVSAAPGRKVTISCSGSSSNIGDHHVSWYQQLPGAAPKLLIYDTDHMASGIPDRFSGSRSGTSATLGITGLQTGDEADYYCGTWDSSLSALVFGGGTKLTVL
# modifications: C0021180
# B9: C0021181: anti-ARG2 antibody, VH SEQ ID NO: 342, VL SEQ ID NO: 347 (antibody, listed as Homo sapiens, V domains shown)
# VH: B1 VH with Q13R, G26E, H33Y, G66S
# VL: B1 VL with T19A, N31S, T52N, T53S, V54E, L55R, S56T, K106R
# modifications: C0021181
# B10: C0021177: anti-ARG2 antibody, VH SEQ ID NO: 322, VL SEQ ID NO: 327 (antibody, listed as Homo sapiens, V domains shown)
# VH: B1 VH with D32E, H33V, H34A, V35A, S54P, G55A, G56P, S57K, T58G
# VL: B1 VL with V3E, S9T, V10A, V20I
# modifications: C0021177
# Target: T1, human ARG2
# Assay: Bio-Layer Interferometry (OctetRED) binding kinetics, human ARG2
# Details: Fab as analyte; streptavidin capture; analyte 1.8 to 120 nM; affinity-matured antibodies
# Source text: The OctetRED (Pall ForteBio) instrument was used to assess the kinetic parameters of the interactions between C0020187 and recombinantly produced human ARG2, cynomolgus ARG2 and human ARG1. The Octet biosensor uses an optical analytical technique that analyses the interference pattern of white light reflected from two surfaces: a layer of immobilised protein on the sensor tip, and an internal reference layer. Any changes in binding at the biosensor tip result in a shift in interference pattern, which can be measured in real time. Molecules associating with or dissociating from ligands at the biosensor tip shift the interference pattern and generate a response on the Octet system which is recorded by the acquisition software.
# Typically, a defined concentration of the analyte species is brought into contact with the coupled ligand and any binding is detected as an increased in signal (association phase). This is followed by a period of buffer rinse, during which dissociation of the analyte species from the surface immobilised ligand can be observed as a decrease in signal (dissociation phase). Repetition of this with a range of analyte concentrations provides data for the analysis of binding kinetics.
# An Octet Kinetics Buffer (PBS containing 0.01% BSA and 0.002% Tween20) is typically used as the diluent buffer for the analyte samples and as the flow buffer during the dissociation phase. The experimental data is recorded over time as shift in interference pattern (nm) over time, which is directly proportional to the optical thickness at the biosensor tip, which in turn is an approximate measure of the mass of analyte bound. The proprietary Octet Data Analysis software package can then be used to process data and fit binding models to the data sets. Returned association (ka, M^−1 s^−1) and dissociation (kd, s^−1) rate constants allow calculation of dissociation (KD, M) affinity constants.
# The affinity of binding between the Fab of C0020187 and human ARG2, cynomolgus ARG2 and human ARG1 was estimated using assays in which the biotinylated ARG antigen was captured on a streptavidin sensor tip. A fresh sensor tip was used for each measurement and no regeneration was used. A series of dilutions of the C0020187 Fab (3.25-240 nM) were individually placed in contact with the ligand surface for a sufficient amount of time to observe sensorgrams that could be fitted to an appropriate binding model with confidence (typically 5 minutes), followed by an appropriate length of dissociation time (typically 10 minutes). Blank reference (0 nM Fab) data were subtracted from each dataset to reduce the impact of any buffer artefacts or non-specific binding effects. An appropriate binding model was then fitted simultaneously to the data from each analyte titration using the Octet Evaluation software.
# Example results for C0020187 are shown in Table 9, showing the association rate constants (ka), dissociation rate constants (kd) and dissociation constants (KD). These parameters were derived from a 1:1 binding fit to the data.
# The affinities of the affinity-matured antibodies to human ARG2 were measured on the OctetRED system as described in section 1.15 using the streptavidin capture method. Typically, an analyte titration range of 1.8 to 120 nM was used.
# The affinities of the second-generation antibodies to human ARG2 were measured on the OctetRED system. A screening assay which stably captures His-tagged ARG2 as the ligand on an anti-His surface was utilised to screen the second-generation candidates as Fabs at an analyte range of 1.8 to 120 nM, with an association time of 5 minutes and a dissociation time of 10 minutes. Sensors were regenerated using 10 mM glycine pH 1.5 after each cycle. Based on this assay, six candidates with estimated affinities in the sub-nanomolar range were identified, and they were further profiled using an extended assay which is more suitable for antibodies of high affinities. […]
ka [M⁻¹ s⁻¹],kd [s⁻¹],Molecule
219000,0.000449,B1
198000,0.000871,B2
412000,0.00112,B3
271000,0.000351,B4
409000,0.000665,B5
280000,0.000755,B6

# Same assay, conditions: second-generation Fab; extended assay: association 10 min, dissociation 40 min, 0.47 to 30 nM, streptavidin surface with bio-ARG2
ka [M⁻¹ s⁻¹],kd [s⁻¹],Molecule
262000,4.54e-05,B7
278000,0.000122,B8
145000,4.17e-05,B9
202000,3.51e-05,B10
